Laboratory results taken from patent US20260209317A1 (US Dept. of Health and Human Services, published 2026).

Biological target: T1, SARS-CoV-2 WA-1 RBD protein (SARS-CoV-2, UniProt P0DTC2 319-541)
T1 construct: domain: RBD
Test: ELISA, plate coated with WA1 RBD

B1: B2-269.1 (antibody, V domains shown)
VH: EVQLVESGGGLVQPGGSLRLSCAASGITVSSNYMSWVRQPPGKGLDWVSLIFSGGSTYYADSVKGRFTISRDNSKNTLYLQMNSLRAEDTAVYYCARVGVAVAGTDYDIWGQGTMVTVSS
VL: DIQMTQSPSSLSASVGDRVTITCQASQDINKYLNWYQQKPGKAPKLLIYDASNLETGVPSRFSGSGSGTDFTFTISSLQPEDIATYYCLHYENLPLSFGGGTKVEIK
Q: Which “EC50 (read off the curve)” value does the source give for B1 here?
A: Its value is roughly 4 ng/mL.
